Data: patent US6075125

Target: BFIV21FLAG: BFIV21 with the FLAG epitope on the amino terminal end, expressed on RP9 cells (chicken)
Experiment: indirect immunofluorescence, flow cytometry on RP9-BFIV21FLAG cells (RP9-BFIV21: 21; RP9: 20)

log fluorescent mean channel number (mean log fluorescent channel number): 191
Substance: FLAG-specific monoclonal antibody M2 (Kodak-IBI) (tool reagent)
